Measurements taken from patent US20190153111A1.

Tests used:
[1] = biological target: Human FcγRIIIA 158V (human) (UniProt P08637); assay: SPR (T100), biotinylated receptor on streptavidin chip, equilibrium binding, 1:1 model
[2] = biological target: Human FcγRIIIA 158F (human) (UniProt P08637); assay: as above
Sequence of Human FcγRIIIA 158F (human) (P08637 17-199 limits assumed): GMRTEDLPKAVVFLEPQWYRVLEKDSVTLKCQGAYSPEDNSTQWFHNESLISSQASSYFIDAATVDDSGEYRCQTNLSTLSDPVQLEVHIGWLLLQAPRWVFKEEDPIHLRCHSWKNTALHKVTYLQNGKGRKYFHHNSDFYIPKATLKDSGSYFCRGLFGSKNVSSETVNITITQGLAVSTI

Sequence of Human FcγRIIIA 158V (human) (P08637 other isoform, or with tags, fused parts or gaps): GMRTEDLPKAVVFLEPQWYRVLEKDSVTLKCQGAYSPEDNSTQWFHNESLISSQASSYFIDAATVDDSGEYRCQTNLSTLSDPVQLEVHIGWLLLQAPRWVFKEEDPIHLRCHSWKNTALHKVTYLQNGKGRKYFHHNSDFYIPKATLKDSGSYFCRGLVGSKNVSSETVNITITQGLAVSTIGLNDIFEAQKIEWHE

Ka [1]: 1.72e+06 M⁻¹
Ka [2]: 699000 M⁻¹
Substance: HCD122 (antibody)
